Measurements taken from patent US20040259198.

Biological target: T1, recombinant human MAT II β subunit protein with N-terminal poly-His tag, expressed in E. coli from pQE-30 (Clone 5)
T1 chain: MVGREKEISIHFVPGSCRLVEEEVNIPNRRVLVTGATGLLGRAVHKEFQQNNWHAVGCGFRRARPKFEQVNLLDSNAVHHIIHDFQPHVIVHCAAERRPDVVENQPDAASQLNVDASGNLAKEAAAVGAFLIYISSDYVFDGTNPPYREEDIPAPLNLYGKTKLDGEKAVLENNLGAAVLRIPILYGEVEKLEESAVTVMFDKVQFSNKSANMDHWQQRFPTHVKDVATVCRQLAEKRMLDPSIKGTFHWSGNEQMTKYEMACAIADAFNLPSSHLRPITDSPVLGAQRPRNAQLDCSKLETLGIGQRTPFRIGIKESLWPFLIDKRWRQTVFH

B1: endogenous E. coli MAT α subunit (protein)
chain: AKHLFTSESVSEGHPDKIADQISDAVLDAILEQDPKARVACETYVKTGMVLVGGEITTSAWVDIEEITRNTVREIGYVHSDMGFDANSCAVLSAIGKQSPDINQGVDRADPLEQGAGDQGLMFGYATNETDVLMPAPITYAHRLVQRQAEVRKNGTLPWLRPDAKSQVTFQYDDGKIVGIDAVVLSTQHSEEIDQKSLQEAVMEEIIKPILPAEWLTSATKFFINPTGRFVIGGPMGDCGLTGRKIIVDTYGGMARHGGGAFSGKDPSKVDRSAAYAARYVAKNIVAAGLADRCEIQVSYAIGVAEPTSIMVETFGTEKVPSEQLTLLVREFFDLRPYGLIQMLDLLHPIYKETAAYGHFGREHFPWEKTDKAQLLRDAAGLK
Km of MAT for L-methionine: This association changed the kinetic properties of the enzyme and lowered the Km of MAT for L-methionine
